Measurements: US20210155961

Target: T1, LvaB (untagged)
T1 chain: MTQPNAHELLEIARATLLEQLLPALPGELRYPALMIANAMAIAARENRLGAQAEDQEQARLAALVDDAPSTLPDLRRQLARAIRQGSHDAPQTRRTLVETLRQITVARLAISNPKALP

B1: MBP-LvaA (LvaA N-terminally tagged with maltose binding protein) (protein)
chain: MSSSPTISPASDTFAAMTDDHRLAEFIREQASATRVVIQARKRLSGGAIQENWLLDLLIEGGPWAGVRRWVLRSDALSALPASLDREQEFAVLQVVYQAGVKVPRPLWLCRDVRVHGRVFFLMEYVPGSAAGRALSTGAGPQGRAQLATQLGANLARLHQVRPPCATLCFLSVPDSSPALATIDAYRRYLDTLADAYPVLEWGLRWCELHAPRSSTLCLLHRDYRTGNYLASEEGLEAVLDWEFTGWGDPCEDLGWFTARCWRFTRPDLEAGGIGQLEDFLRGYHEVSSLCIERSRLHYWQVMATLRWAVIALQQGQRHLSGEEPSLELALTARLLPELELDILHMTGAEAP
**Q.** How did the “abundance of CoA species by LC/MS in in vitro enzyme reactions (4HV-CoA to 4PV-CoA)” value turn out when B1 was run?
**A.** The value was “A decrease of 4HV-CoA and an increase of the predicted 4PV-CoA intermediate was seen only when all four of the enzymes were present”.
